According to the nanobody polyreactivity screen of Harvey et al. (2022):

Assay: yeast display, Sf9 membrane polyspecificity reagent, FACS + sequencing; frameworks hold sequencing errors
Method in brief: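 Galactose-induced (36–48 hours) yeast carrying a synthetic nanobody display library were exposed to 10% biotinylated, detergent-solubilized Sf9 membrane reagent at 4 °C for 1 hour. FACS followed streptavidin microbead enrichment, using low and high (top ~1%) gates for expression (anti-HA) and reagent binding (streptavidin). Colony PCR, MiSeq 2 × 250 sequencing and CDR-length filtering followed. Labels for polyreactivity reflect the gate of origin.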

Sequence | polyreactivity (PSR sort gate)
QVQLVESGGGLVQAGGSLRLSCAASGIIFQYYAMGWYRPAPGKEREWVAAITSSGDRTYYADSVKGRFTISRDNAKNNVILQMNSLNPEDTAVYYCNAVYYLDYHYGYEFGYWGQGTQVTVSS | high polyreactivity
QVQLVESGGGLVQAGGSLRLSCAASGIIFRDYGMGWSRQAPGKEREFVATITYSGGGTYYADSVKGRFTISRDKAKNTVYLQMNSLKPEDTAVYYCAAYPFYYDLAYDYWGQGTQVTVSS | low polyreactivity
QVQLVESGGGLVQAGGSLRLSCAASGIIFRGNVMGWSRQAPGKERELVAAISGSGGRTYYADSVKGRFTISRDNAKNTVYLQMNSLKPEDTAVYYCNADKAIRYDYWGQGTQVTVSS | high polyreactivity
QVQLVESGGGLVQAGGSLRLSCAASGIIFRHNAMGWYRQAPGKERELVAAISSGGNTYYADSVKGRFTISRDNAKNTVYLQMNSLKPEDTAVYYCAADVQDRYHRAWYDYWGQGTQVTVSS | low polyreactivity
QVQLVESGGGLVQAGGSLRLSCAASGIIFRLNAMGWYRQAPGKERELVAAIRRRGGSTYYADSVKGRFTISRDIAKNTVYLQMNSLKPEDTAVYYCAKDPHGSDFGYWGQGTQVTVSS | low polyreactivity
QVQLVESGGGLVQAGGSLRLSCAASGIIFRLNTMGWYRQAPGKERELVAAITSGGSTQYADSVKGRFTISRDNAKNTVYLQMNSLKPEDSAVYYCAAGHRANYWAWHFYYPGDFWGQGTQVTVSS | low polyreactivity
QVQLVESGGGLVQAGGSLRLSCAASGIIFRNNAMGWYRQAPGKERELVAAISRRGGSTSYADSVKGRFTISRDNAKNTVYLQMNSLKPEDTAVYYCNKAGPYYGYPHYLFYYWGQGTQVTVSS | high polyreactivity
QVQLVESGGGLVQAGGSLRLSCAASGIIFRRNAMGWYRQAPGKERELVAAIRWSGGSTYYADSVKGRFTISRDNAKNTVYLQMNSLKPEDTAVYYCAARYYRPRYEMDYWGQGTQVTVSS | low polyreactivity
QVQLVESGGGLVQAGGSLRLSCAASGIIFRRYAMGWYRQAPGKERELVAAISSSGGNTYYADSVKGRFTISRDNAKNTVYLQMYSLKPEDTAVYYCAARSQIYYRYRSYGYWGQGTQVTVSS | high polyreactivity
QVQLVESGGGLVQAGGSLRLSCAASGIIFRRYAMGWYRQAPGKERELVATITWSGGSTYYADSVKGRFTISRDNAKNTVYLQMNSLKPEDTAVYYCAKRGSRLYRLDYWGQGTQVTVSS | high polyreactivity
QVQLVESGGGLVQAGGSLRLSCAASGIIFRTYAMGCYRQAPVKERELVAAITGSGGITYYADSVKGRFTISRDNAKNTVYLQMNSLKPEDTAVYYCAARGTRDGVQRYGYWGQGSQVTVSS | high polyreactivity
QVQLVESGGGLVQAGGSLRLSCAASGIIFRTYDMGWYRQAPGKERELVANISWSAGSTYYADSVKGRFTISRDNAKNTVYLQMNSLKPEDTAVYFCNAVRLYPSSYDYWGQGTQVTVSS | low polyreactivity
QVQLVESGGGLVQAGGSLRLSCAASGIIFRVNAMGWYRQAPGKERELVAAISSGGRTYYADSVKGRFTISRDNAKNTVYLQMNSLKPEDTAVYYCAAKPPSTYDYWGQGTQVTVSS | high polyreactivity
QVQLVESGGGLVQAGGSLRLSCAASGIIFRVYTMGWYRQAPGKERELVAGISSGDSTSYADSVKGRFTISRDNAKNTVYLQMNSLKPEDTAVYYCNAVAYYSYSANFRNAYDYWGQGTQVTVSS | low polyreactivity
QVQLVESGGGLVQAGGSLRLSCAASGIIFRWYVMGWYRQAPGKERELVAAISYRRGSTNYADSVKGRFTISRDNAKNTVYLQMNSLKPEDTAVYYCNRVPYPGSRRKYDYWGQGTQVTVSS | high polyreactivity
QVQLVESGGGLVQAGGSLRLSCAASGIIFRYNAMGWYRQAPGKERELVAVINWRSGGTYYADSVKGRFTISRDNAKNTVYLQMNSLKPDDTADYYCADRVGSWTQSFGYDYWGQGTQVTVSS | high polyreactivity
QVQLVESGGGLVQAGGSLRLSCAASGIIFRYNTMGWYRQAPGKERELVAAISGGGRTYYADSVKGRFTISRDNAKNTVYLQMNSLKPEDTAVYYCAARYRTSGLDNYWGQGTQVTVSS | high polyreactivity
QVQLVESGGGLVQAGGSLRLSCAASGIIFRYYAMGWYRQAPGKERELVAAISSSGVSTYYADSVKGRFTISRDNAKNTVYLQMNSLKPEDTAVYYCNAVIWVRQYFSRSSSNYWGQGTQVTVSS | high polyreactivity
QVQLVESGGGLVQAGGSLRLSCAASGIIFRYYAMGWYRQAPGKERELVAAITSRGGSTYYADSVKGRFTISRDNAKNTVYLQMNSLKPEDTAVYYCATAYYYFSTSRADGEYWGQGTQVTVSS | high polyreactivity
QVQLVESGGGLVQAGGSLRLSCAASGIIFRYYAMGWYRQAPGKERELVAAITWSGGTYYADSVKGRFTISRDNAKKTVYLQMNSLKPEETAVYYCAAVYYGYRDRTDYGYWGQGTQVTVSS | high polyreactivity
QVQLVESGGGLVQAGGSLRLSCAASGIIFRYYAMGWYRQAPGKERELVARITSRGGTYYADSVKGRFTISRDNAKNTVYLQMNSLKPEDTAVYDCAASYLLTHGYAYNYWGQGTQVTVSS | high polyreactivity

Sequence | polyreactivity (PSR sort gate)
QVQLVESGGGLVQAGGSLRLSCAASGIIFRYYAMGWYRQAPGKERELVAVITRSGGSTYADSVKGRFTISRDNAKNTVYLQMNSLKPEDTAVYYCAAQWYLGYATRWRGGYWGQGTQVTVSS | high polyreactivity
QVQLVESGGGLVQAGGSLRLSCAASGIIFSDYAMGWYRQAPGKERELVAAISRNGGSTYYADSVKGRFTISRDNAKNTVYLHMTSLKPEDTAVYYCAATRRYRYNWGQGTQVSVSS | high polyreactivity
QVQLVESGGGLVQAGGSLRLSCAASGIIFSDYGMGWDRQAPGKERELVAAINSGGRTYSADSVKGRFTISRDNAKNTVYLQMNSLKPEDTAVYYCAADTQGSRYDYWGQGTQVTVSS | high polyreactivity
QVQLVESGGGLVQAGGSLRLSCAASGIIFSFYAMGWYRQAPGKERELVADITLSGGRTYYADSVKGRFTISRDNAKNTVYLQMNSLKPEDTAVYYCNDETYERGDYWGQGTKVTVSS | high polyreactivity
QVQLVESGGGLVQAGGSLRLSCAASGIIFSFYTMGWYRQAPGKERELGAAITWSGGSTYYADSVKGRFTISRDNAKNTVYLQMNSLKPEDTAVYYCARSQAVYDGWFAKFGYWGQGTQVTVSS | low polyreactivity
QVQLVESGGGLVQAGGSLRLSCAASGIIFSGYVMGWYGQAPGKERELVAAISRSGGRTFYADSVKGRFTISRDNAMNTVYLQMNSLKPEDTAVYYCAKVPSYVRGHGYQYDHWGQGTQVTVSS | high polyreactivity
QVQLVESGGGLVQAGGSLRLSCAASGIIFSIYAMGWYRQAPGKERELVAAISGRGGRTYYADSVKGRFTISRDNAKNTVYLQMNSLKPVDTAVYYCIAEYLDLYDYWGQGTQVTVSS | low polyreactivity
QVQLVESGGGLVQAGGSLRLSCAASGIIFSPYAMGWYRQAPGKERELVAAISYSGGSTYYADSVKGRFTITRDNAKNTVYLQMNSLKPEDTAVYYCAVVYSYYLAVLGYWDYDYWGQGTQVTVSS | low polyreactivity
QVQLVESGGGLVQAGGSLRLSCAASGIIFSPYAMGWYRQAPGKERELVAAISYSGGSTYYADSVKGRYTISRDNAKNSVYLQMNSLKPEETAVYYCAVFYSYYLAFMGYWDYDYWGQGTQVTVSS | low polyreactivity
QVQLVESGGGLVQAGGSLRLSCAASGIIFSSYAMGWYRQAPGKERELVAAITRGGSTNYADSVKGRFTISRDNAKNTVYLQMNSLKPEDTAVYYCNALWRAYRNYHYIVKNDYWGEGTQVTVSS | high polyreactivity
QVQLVESGGGLVQAGGSLRLSCAASGIIFSSYAMGWYRQAPGKERELVAAITSGGSTNYADSVKGRFTISRDNAKNTVYLQMNSLKPEDTAVYYCATVHAKPYYYWGQGTQVTVSS | low polyreactivity
QVQLVESGGGLVQAGGSLRLSCAASGIIFSVNAMGWYRQAPGKERELVAAISGSGGRTYYADSVKGRFTISRDNAKNTVYLQMNSLKPEDTAVYYCAARRTGKSYYGSRSGFDYWGQGTQVTVSS | high polyreactivity
QVQLVESGGGLVQAGGSLRLSCAASGIIFSVYAMGWYRQAPGKERELVAAISWSGTSTYYADSVKGRFTISRDNAKNTVYLQMNSLKPEDTAVYYCNAKRYRYFGNEYWGQGTQVTVSS | high polyreactivity
QVQLVESGGGLVQAGGSLRLSCAASGIIFSWYAMGWYRQAPGKERELVASITASGGSTYYADSVKGRFTISRDNAKNTVYLQMNSLKPEDTAVYYCAVRYGHRSFASVYVEYEYWGQGTQVTVSS | low polyreactivity
QVQLVESGGGLVQAGGSLRLSCAASGIIFSYNVMGWSREARGKEREFVAAISRSVGSTYYADSVKGRFTISRDNAKNTVYLPMNSLKPEDTAVYYCNARGKRRGKIPYSSYASSYDSWGQGTQVTVSS | high polyreactivity
QVQLVESGGGLVQAGGSLRLSCAASGIIFSYYDMGRYRQAPGKERELVATITGNGGSTYYADSVKGRFTISRDNAKNTVYLQMNSLKPEDTAVYYCAAQTTVYIYDYWGQGTQVTVSS | low polyreactivity
QVQLVESGGGLVQAGGSLRLSCAASGIIFSYYTMGWYRQEPGKEREVVAAISARGGRTYYADSVKGRFTISRDNAKNTVYLQMNSLKPEDTAVYYCAASWSTEYYWGQGTQVTVSS | high polyreactivity
QVQLVESGGGLVQAGGSLRLSCAASGIIFTDNAMGWYRQAPGKERELVATISWSTDNTYYADSVKGRFTISRDNAKNTVYLQMNSLKPEDTAVYYCAAEEYYAYWYQYDYWGQATQVTVSS | low polyreactivity
QVQLVESGGGLVQAGGSLRLSCAASGIIFTDYAMGWYRQAPGIERELVAAISGSGGSTYYADSVKGRFTISRDNAKNTVYLQMNSLKPEDTAVYYCAAATHIFLQVYYAYGYWGQGTQVTVSS | high polyreactivity
QVQLVESGGGLVQAGGSLRLSCAASGIIFTFYAMGWYRQAPGKERELVAAISYSSGSTYADSVKGRFTISRDNAKNTVYLQMNSLKPDDTAVYYCAVDLFPGHSYTYDYWGQGTQVTVSS | low polyreactivity
